Source: patent publication US7074904
Like-named read-outs stand apart in the source and are kept apart here.

Experiments:
[1] = molecular target: membrane-bound single-chain I-A^d-OVA (SCT1 construct) on transfected NSO cells (mouse (I-A^d); chicken (OVA peptide)); test: flow cytometry, FITC-conjugated 10-3.6 isotype control 1:100 on T12 (SCT1-transfectant)
[2] = molecular target: I-A^d on NSO parental cells (untransfected negative control, H-2^d background) (mouse) (UniProt P04228); test: flow cytometry, FITC-conjugated 10-3.6 isotype control 1:100 on NSO (parental) cells
[3] = molecular target: membrane-bound single-chain I-A^d-OVA (SCT1 construct) on transfected NSO cells (mouse (I-A^d); chicken (OVA peptide)); test: flow cytometry, FITC-conjugated 10-3.6 isotype control 1:100 on T2 (SCT1-transfectant)
[4] = molecular target: membrane-bound single-chain I-A^d-OVA (SCT1 construct) on transfected NSO cells (mouse (I-A^d); chicken (OVA peptide)); test: flow cytometry, FITC-conjugated 10-3.6 isotype control 1:100 on T6 (SCT1-transfectant)
[5] = molecular target: soluble single-chain I-A^d-OVA from insect cells (SSC1 gene in pMBSC1.2, SF9 cells) (mouse (I-A^d); chicken (OVA peptide)); test: sandwich ELISA, M5/114 capture and biotinylated AMS-32.1 detection; cotransfection mix supernatant, diluted 1:8
[6] = molecular target: soluble single-chain I-A^d-OVA from insect cells (SSC1 gene in pMBSC1.2, SF9 cells) (mouse (I-A^d); chicken (OVA peptide)); test: sandwich ELISA, M5/114 capture and biotinylated AMS-32.1 detection; supernatant of virus clone C6
[7] = molecular target: soluble single-chain I-A^d-OVA from insect cells (SSC1 gene in pMBSC1.2, SF9 cells) (mouse (I-A^d); chicken (OVA peptide)); test: sandwich ELISA, M5/114 capture and biotinylated AMS-32.1 detection; cotransfection mix supernatant, undiluted
[8] = molecular target: soluble single-chain I-A^d-OVA from insect cells (SSC1 gene in pMBSC1.2, SF9 cells) (mouse (I-A^d); chicken (OVA peptide)); test: sandwich ELISA, M5/114 capture and biotinylated AMS-32.1 detection; supernatant of virus clone F8
[9] = molecular target: soluble single-chain I-A^d-OVA with EE antibody tag (SCE1 construct) secreted by transfected NSO cells (mouse (I-A^d); chicken (OVA peptide)); test: sandwich ELISA of Example 18, M5/114 capture and biotinylated AMS-32.1 detection; undiluted culture supernatant of E10 (SCE1 transfectant)
[10] = molecular target: soluble single-chain I-A^d-OVA from insect cells (SSC1 gene in pMBSC1.2, SF9 cells) (mouse (I-A^d); chicken (OVA peptide)); test: sandwich ELISA, M5/114 capture and biotinylated AMS-32.1 detection; cotransfection mix supernatant, diluted 1:2
[11] = molecular target: Neuron Specific Enolase (NSE), supernatant of SF9 cells infected with recombinant Baculovirus; test: sandwich ELISA, M5/114 capture and biotinylated AMS-32.1 detection; supernatant of SF9 cells infected with NSE Baculovirus (negative control)
[12] = molecular target: soluble single-chain I-A^d-OVA from insect cells (SSC1 gene in pMBSC1.2, SF9 cells) (mouse (I-A^d); chicken (OVA peptide)); test: sandwich ELISA, M5/114 capture and biotinylated AMS-32.1 detection; cotransfection mix supernatant, diluted 1:4
[13] = molecular target: soluble single-chain I-A^d-OVA from insect cells (SSC1 gene in pMBSC1.2, SF9 cells) (mouse (I-A^d); chicken (OVA peptide)); test: sandwich ELISA of Example 18, M5/114 capture and biotinylated AMS-32.1 detection; sc I-A^d-OVA from insect cell culture (positive control)
[14] = molecular target: soluble single-chain I-A^d-OVA with EE antibody tag (SCE1 construct) secreted by transfected NSO cells (mouse (I-A^d); chicken (OVA peptide)); test: sandwich ELISA of Example 18, M5/114 capture and biotinylated AMS-32.1 detection; undiluted culture supernatant of E11 (SCE1 transfectant)
[15] = molecular target: membrane-bound single-chain I-A^d-OVA (SCT1 construct) on transfected NSO cells (mouse (I-A^d); chicken (OVA peptide)); test: flow cytometry, FITC-conjugated AMS 32.1 1:100 on T2 (SCT1-transfectant)
[16] = molecular target: I-A^d on NSO parental cells (untransfected negative control, H-2^d background) (mouse) (UniProt P04228); test: flow cytometry, FITC-conjugated AMS 32.1 1:100 on NSO (parental) cells
[17] = molecular target: membrane-bound single-chain I-A^d-OVA (SCT1 construct) on transfected NSO cells (mouse (I-A^d); chicken (OVA peptide)); test: flow cytometry, FITC-conjugated AMS 32.1 1:100 on T6 (SCT1-transfectant)
[18] = molecular target: membrane-bound single-chain I-A^d-OVA (SCT1 construct) on transfected NSO cells (mouse (I-A^d); chicken (OVA peptide)); test: flow cytometry, FITC-conjugated AMS 32.1 1:100 on T12 (SCT1-transfectant)
[19] = molecular target: T cell receptor of the murine T cell hybridoma DO11.10 (I-A^d restricted, OVA peptide 323-339 specific) (mouse); test: cell-based or functional assay
[20] = molecular target: T cell receptor of the murine T cell hybridoma DO11.10 (I-A^d restricted, OVA peptide 323-339 specific) (mouse); test: cell-based or functional assay; remark: listed apart in the source

Q: How did the Mean Fluorescence [1] turn out when “isotype matched FITC-conjugated anti-I-A^k antibody, 10-3.6 (PharMingen)” was run?
A: 45.9

Q: And the Mean Fluorescence [2]?
A: 32.1

Q: What about the Mean Fluorescence [3] of the same molecule?
A: 22

Q: What about the Mean Fluorescence [4] of the same molecule?
A: 45.1

Q: Which results are given for “M5/114 (ATCC TIB 120) anti-IA^d (antibody)”?
A: Absorbance (405 nm) [5]: 0.165 absorbance; Absorbance (405 nm) [6]: 1.56 absorbance; Absorbance (405 nm) [7]: 0.857 absorbance; Absorbance (405 nm) [8]: 1.45 absorbance; Absorbance (405 nm) [9]: 0.781 absorbance; Absorbance (405 nm) [10]: 0.524 absorbance; Absorbance (405 nm) [11]: 0.098 absorbance; Absorbance (405 nm) [12]: 0.305 absorbance; Absorbance (405 nm) [13]: 2.44 absorbance; Absorbance (405 nm) [14]: 0.96 absorbance

Q: How did the Mean Fluorescence [15] turn out when “AMS-32.1 anti-IA^d (Pharmingen) (antibody)” was run?
A: 613

Q: And the Mean Fluorescence [16]?
A: 280

Q: What about the Mean Fluorescence [17] of the same molecule?
A: 418

Q: What about the Mean Fluorescence [18] of the same molecule?
A: 911

B1: soluble single-chain I-A^d-OVA from insect cells (SSC1 gene in pMBSC1.2, SF9 cells) (peptide-MHC)
chain: TMALQIPSLLLSAAVVVLMVLSSPRTLSISQAVHAAHAEINEAGRASGGGGSGGGGNSERHFVVQFKGECYYTNGTQRIRLVTRYIYNREEYVRYDSDVGEYRAVTELGRPDAEYWNSQPEILERTRAEVDTACRHNYEGPETSTSLRRLEQPNVAISLSRTEALNHHNTLVCSVTDFYPAKIKVRWFRNGQEETVGVSSTQLIRNGDWTFQVLVMLEMTPHQGEVYTCHVEHPSLKSPITVEWTSGGGGSGGGGSGGGGSGGGGSSSEDDIEADHVGFYGTTVYQSPGDIGQYTHEFDGDELFYVDLDKKKTVWRLPEFGQLILFEPQGGLQNIAAEKHNLGILTKRSNFTPATNEAPQATVFPKSPVLLGQPNTLICFVDNIFPPVINITWLRNSKSVTDGVYETSFLVNRDHSFHKLSYLTFIPSDDDIYDCKVEHWGLEEPVLKHWSRASHHHHHH
Q: With B1 as the molecule, how does the IL-2 concentration in DO11 super, 39 ng/well immobilized scIA^d-OVA (extended dilution) [19] read?
A: 0 U/ml

Q: And the IL-2 concentration in DO11 super, 78 ng/well immobilized sc IA^d-OVA [19]?
A: 45 U/ml

Q: And the IL-2 concentration in DO11 super, 78 ng/well immobilized scIA^d-OVA (extended dilution) [19]?
A: 17 U/ml

Q: What about the IL-2 concentration in DO11 super, 156 ng/well immobilized sc IA^d-OVA [19] of the same molecule?
A: 100 U/ml

Q: What about the IL-2 concentration in DO11 super, 156 ng/well immobilized scIA^d-OVA (extended dilution) [19] of the same molecule?
A: 24 U/ml

Q: What about the IL-2 concentration in DO11 super, 312 ng/well immobilized sc IA^d-OVA [19] of the same molecule?
A: 109 U/ml

Q: And the IL-2 concentration in DO11 super, 312 ng/well immobilized scIA^d-OVA (extended dilution) [19]?
A: 35 U/ml

Q: What about the IL-2 concentration in DO11 super, 625 ng/well immobilized sc IA^d-OVA [19] of the same molecule?
A: 116 U/ml

Q: And the IL-2 concentration in DO11 super, 625 ng/well immobilized scIA^d-OVA (extended dilution) [19]?
A: 38 U/ml

Q: And the IL-2 concentration in DO11 super, 1250 ng/well immobilized sc IA^d-OVA [19]?
A: 126 U/ml

Q: And the IL-2 concentration in DO11 super, 2500 ng/well immobilized sc IA^d-OVA [19]?
A: 143 U/ml

Q: And the IL-4 concentration in DO11 super, 78 ng/well immobilized sc IA^d-OVA [19]?
A: 7 U/ml

Q: What about the IL-4 concentration in DO11 super, 156 ng/well immobilized sc IA^d-OVA [19] of the same molecule?
A: 10 U/ml

Q: And the IL-4 concentration in DO11 super, 312 ng/well immobilized sc IA^d-OVA [19]?
A: 16 U/ml

Q: What about the IL-4 concentration in DO11 super, 625 ng/well immobilized sc IA^d-OVA [19] of the same molecule?
A: 15 U/ml

Q: What about the IL-4 concentration in DO11 super, 1250 ng/well immobilized sc IA^d-OVA [19] of the same molecule?
A: 20 U/ml

Q: What about the IL-4 concentration in DO11 super, 2500 ng/well immobilized sc IA^d-OVA [19] of the same molecule?
A: 23 U/ml

Q: What about the IL-r [IL-4] concentration in DO11 super, 39 ng/well immobilized scIA^d-OVA (extended dilution) [19] of the same molecule?
A: 0 U/ml

Q: What about the IL-r [IL-4] concentration in DO11 super, 78 ng/well immobilized scIA^d-OVA (extended dilution) [19] of the same molecule?
A: 0.8 U/ml

Q: What about the IL-r [IL-4] concentration in DO11 super, 156 ng/well immobilized scIA^d-OVA (extended dilution) [19] of the same molecule?
A: 0.9 U/ml

Q: What about the IL-r [IL-4] concentration in DO11 super, 312 ng/well immobilized scIA^d-OVA (extended dilution) [19] of the same molecule?
A: 1.5 U/ml

Q: And the IL-r [IL-4] concentration in DO11 super, 625 ng/well immobilized scIA^d-OVA (extended dilution) [19]?
A: 2 U/ml

B2: I-A^d on NSO parental cells (untransfected negative control, H-2^d background) (protein, mouse)
MHC II alpha: EDDIEADHVGFYGTTVYQSPGDIGQYTHEFDGDELFYVDLDKKKTVWRLPEFGQLILFEPQGGLQNIAAEKHNLGILTKRSNFTPATNEAPQATVFPKSPVLLGQPNTLICFVDNIFPPVINITWLRNSKSVTDGVYETSFLVNRDHSFHKLSYLTFIPSDDDIYDCKVEHWGLEEPVLKHWEPEIPAPMSELTETVVCALGLSVGLVGIVVGTIFIIQGLRSGGTSRHPGPL
MHC II beta: GNSERHFVVQFKGECYYTNGTQRIRLVTRYIYNREEYVRYDSDVGEYRAVTELGRPDAEYWNSQPEILERTRAEVDTACRHNYEGPETSTSLRRLEQPNVAISLSRTEALNHHNTLVCSVTDFYPAKIKVRWFRNGQEETVGVSSTQLIRNGDWTFQVLVMLEMTPHQGEVYTCHVEHPSLKSPITVEWRAQSESARSKMLSGIGGCVLGVIFLGLGLFIRHRSQKGPRGPPPAGLLQ
Q: Which results are given for B2?
A: IL-2 ELISA result (Absorbance), DO11.10 with NSO (parental cell line) as antigen presenting cell [20]: 0.078 Absorbance; IL-2 ELISA result (Absorbance), DO11.10 with NSO (parental cell line) as antigen presenting cell [19]: 0.047 Absorbance

B3: membrane-bound single-chain I-A^d-OVA (SCT1 construct) on transfected NSO cells (peptide-MHC)
chain: TMALQIPSLLLSAAVVVLMVLSSPRTLSISQAVHAAHAEINEAGRASGGGGSGGGGNSERHFVVQFKGECYYTNGTQRIRLVTRYIYNREEYVRYDSDVGEYRAVTELGRPDAEYWNSQPEILERTRAEVDTACRHNYEGPETSTSLRRLEQPNVAISLSRTEALNHHNTLVCSVTDFYPAKIKVRWFRNGQEETVGVSSTQLIRNGDWTFQVLVMLEMTPHQGEVYTCHVEHPSLKSPITVEWTSGGGGSGGGGSGGGGSGGGGSSSEDDIEADHVGFYGTTVYQSPGDIGQYTHEFDGDELFYVDLDKKKTVWRLPEFGQLILFEPQGGLQNIAAEKHNLGILTKRSNFTPATNEAPQATVFPKSPVLLGQPNTLICFVDNIFPPVINITWLRNSKSVTDGVYETSFLVNRDHSFHKLSYLTFIPSDDDIYDCKVEHWGLEEPVLKHWEPEIPAPMSELTETVVCALGLSVGLVGIVVGTIFIIQGLRSGGTSRHPGPL
Q: What does the source list for B3?
A: IL-2 ELISA result (Absorbance), DO11.10 with T12 (SCT1 transfectant) as antigen presenting cell [20]: 1.03 Absorbance; IL-2 ELISA result (Absorbance), DO11.10 with T2 (SCT1 transfectant) as antigen presenting cell [19]: 0.758 Absorbance; IL-2 ELISA result (Absorbance), DO11.10 with T6 (SCT1 transfectant) as antigen presenting cell [19]: 0.307 Absorbance

B4: I-A^d on A20 cells with added OVA 323-339 peptide (peptide-MHC, mouse)
MHC II alpha: B2 MHC II alpha
MHC II beta: B2 MHC II beta
peptide: SISQAVHAAHAEINEAGR
Q: What does the source list for B4?
A: IL-2 ELISA result (Absorbance), DO11.10 with A20 + OVA 323-339 peptide (positive control) [20]: 1.45 Absorbance; IL-2 ELISA result (Absorbance), DO11.10 with A20 + OVA 323-339 peptide (positive control) [19]: 1.33 Absorbance
